# Laboratory results: article PMC6105031, “The crystal structure of KSHV ORF57 reveals dimeric active sites important for protein stability and function” (PLoS Pathogens, 2018)
# B1: FLAG-tagged full-length ORF57 [Kaposi's sarcoma-associated herpesvirus (KSHV, HHV8)] / itself (parent complex)
# chain: MVQAMIDMDIMKGILEDSVSSSEFDESRDDETDAPTLEDEQLSEPAEPPADERIRGTQSAQGIPPPLGRIPKKSQGRSQLRSEIQFCSPLSRPRSPSPVNRYGKKIKFGTAGQNTRPPPEKRPRRRPRDRLQYGRTTRGGQCRAAPKRATRRPQVNCQRQDDDVRQGVSDAVKKLRLPASMIIDGESPRFDDSIIPRHHGACFNVFIPAPPSHVPEVFTDRDITALIRAGGKDDELINKKISAKKIDHLHRQMLSFVTSRHNQAYWVSCRRETAAAGGLQTLGAFVEEQMTWAQTVVRHGGWFDEKDIDIILDTAIFVCNAFVTRFRLLHLSCVFDKQSELALIKQVAYLVAMGNRLVEACNLLGEVKLNFRGGLLLAFVLTIPGMQSRRSISARGQELFRTLLEYYRPGDVMGLLNVIVMEHHSLCRNSECAAATRAAMGSAKFNKGLFFYPLS
# Variants of: B1
# Assay: in vitro crosslinking assay (DSS) with anti-FLAG Western blot; HEK293 cells, 0.5 μg plasmid for WT and 2 μg for mutant, DSS 50 μM for 30 min; lanes 14 (WT) and 16 (mutant); parent: 0.15
row,Variant,screen value
1,"MVQAMIDMDIMKGILEDSVSSSEFDESRDDETDAPTLEDEQLSEPAEPPADERIRGTQSAQGIPPPLGRIPKKSQGRSQLRSEIQFCSPLSRPRSPSPVNRYGKKIKFGTAGQNTRPPPEKRPRRRPRDRLQYGRTTRGGQCRAAPKRATRRPQVNCQRQDDDVRQGVSDAVKKLRLPASMIIDGESPRFDDSIIPRHHGACFNVFIPAPPSHVPEVFTDRDITALIRAGGKDDELINKKISAKKIDHLHRQMLSFVTSRHNQAYWVSCAAETAAAGGLQTLGAFVEEQMTWAQTVVRHGGWFDEKDIDIILDTAIFVCNAFVTRFRLLHLSCVFDKQSELALIKQVAYLVAMGNRLVEACNLLGEVKLNFRGGLLLAFVLTIPGMQSRRSISARGQELFRTLLEYYRPGDVMGLLNVIVMEHHSLCRNSECAAATRAAMGSAKFNKGLFFYPLS [chain 1 R270A, chain 1 R271A]",0.07
